54 molecules from patent publication US20140179896A1 (published 2014) can be followed below.

Residue numbers refer to the chain shown, from its start.

The target in this assay is T1, human vascular endothelial growth factor receptor-2 Fc chimera (KDR-Fc) (human, UniProt P35968 20-764).
T1 construct: range 1-764; purchased from R&D Systems; also called hKDR; human VEGF-R2-Fc; not shown: human IgG1 Fc
Briefly: radioactive equilibrium binding, 1 nM KDR-Fc. A digest of the protocol: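 Receptor-Fc fusions titrated from 0 to 200 nM against a fixed 0.2 or 0.5 nM of ³⁵S-labeled scaffold protein for 1 h at 30° C. Protein A bead pull-down followed by scintillation counting of eluate versus reaction mixture. Specific binding is total minus no-receptor binding, fitted to a one-site nonlinear equation.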

T1 sequence (P35968 20-764 limits assumed, change not shown, form in doubt): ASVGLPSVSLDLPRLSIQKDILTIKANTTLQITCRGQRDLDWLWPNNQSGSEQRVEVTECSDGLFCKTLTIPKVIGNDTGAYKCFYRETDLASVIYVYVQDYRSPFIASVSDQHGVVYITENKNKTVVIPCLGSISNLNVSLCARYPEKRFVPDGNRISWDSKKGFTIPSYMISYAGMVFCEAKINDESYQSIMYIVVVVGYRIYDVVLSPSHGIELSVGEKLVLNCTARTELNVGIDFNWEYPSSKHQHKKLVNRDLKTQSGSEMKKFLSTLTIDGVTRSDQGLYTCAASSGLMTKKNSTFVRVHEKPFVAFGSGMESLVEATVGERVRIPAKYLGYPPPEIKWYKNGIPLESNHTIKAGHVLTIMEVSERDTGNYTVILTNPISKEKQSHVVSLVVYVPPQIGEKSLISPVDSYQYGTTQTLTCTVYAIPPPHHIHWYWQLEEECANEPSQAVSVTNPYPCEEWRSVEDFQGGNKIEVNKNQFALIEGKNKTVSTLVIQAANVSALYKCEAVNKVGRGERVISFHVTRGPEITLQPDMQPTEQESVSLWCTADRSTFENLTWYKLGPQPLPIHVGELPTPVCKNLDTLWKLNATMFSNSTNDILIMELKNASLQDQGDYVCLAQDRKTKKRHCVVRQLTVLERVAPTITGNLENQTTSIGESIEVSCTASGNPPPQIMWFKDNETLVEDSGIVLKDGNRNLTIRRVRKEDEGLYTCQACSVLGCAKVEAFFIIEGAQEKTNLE

B1: 4A12 PR3 (designed binder)
chain: EVVAATPTSLLISWRHPHFPTRYYRITYGETGGNSPVQEFTVPLQPPTATISGLKPGVDYTITGYAVTVAQNDHELLTPISINYRT
notes: tag left out
As to B1, the “Binding to 1 nM KDR, %” value is 13%.

B2: 1′DelC4 PR4 (designed binder)
chain: B1 chain with N72S, D73N, L77M
notes: tag left out
Consider B2, for which the “Binding to 1 nM KDR, %” value came out at 9%.

B3: 3F1 PR3 (designed binder)
chain: B1 chain with V69L, A70T, Q71H, D73E, H74Q, E75Y, L77F
notes: tag left out
For B3, the “Binding to 1 nM KDR, %” value is 9%.

B4: 1′DelD3 PR4 (designed binder)
chain: B1 chain with V69L, D73N, L77I
notes: tag left out
As to B4, the “Binding to 1 nM KDR, %” value was determined as 12%.

B5: 1′DelH6 PR4 (designed binder)
chain: B1 chain with A70G, N72Y, L77I
notes: tag left out
Consider B5, for which the “Binding to 1 nM KDR, %” value came to 6%.

B6: 1′DelH7 PR4 (designed binder)
chain: B1 chain with A70G, H74Q
notes: tag left out
For B6, the “Binding to 1 nM KDR, %” value is 11%.

B7: 3H9 PR3 (designed binder)
chain: B1 chain with A70S, N72Q, D73N
notes: tag left out
Regarding B7, the “Binding to 1 nM KDR, %” value was 11%.

B8: 2′DelB11 PR4 (designed binder)
chain: B1 chain with A70G, L77M
notes: tag left out
Turning to B8, the “Binding to 1 nM KDR, %” value worked out at 11%.

B9: 4G4 PR3 (designed binder)
chain: B1 chain with V69L, A70G
notes: tag left out
In the case of B9, the “Binding to 1 nM KDR, %” value turned out to be 8%.

B10: 1′DelC10 PR4 (designed binder)
chain: B1 chain with Q71K, L77I
notes: tag left out
Regarding B10, the “Binding to 1 nM KDR, %” value worked out at 8%.

B11: 1′DelB10 PR4 (designed binder)
chain: B1 chain with Q71R, L77M
notes: tag left out
As to B11, the “Binding to 1 nM KDR, %” value turned out to be 11%.

B12: 1′DelG9 PR4 (designed binder)
chain: B1 chain with N72S, L77M
notes: tag left out
For B12, the “Binding to 1 nM KDR, %” value came out at 10%.

B13: 4B7 PR3 (designed binder)
chain: B1 chain with A70T, L77F
notes: tag left out
With B13, the “Binding to 1 nM KDR, %” value is 13%.

B14: 4D2 PR3 (designed binder)
chain: B1 chain with D73N, L77I
notes: tag left out
Turning to B14, the “Binding to 1 nM KDR, %” value was determined as 8%.

B15: 3E6 PR3 (designed binder)
chain: B1 chain with A70P, D73G, L77I, P79M
notes: tag left out
B15: the “Binding to 1 nM KDR, %” value came to 12%.

B16: 1′DelE11 PR4 (designed binder)
chain: B1 chain with H74R, L77I
notes: tag left out
As to B16, the “Binding to 1 nM KDR, %” value is 9%.

B17: 1′DelG11 PR4 (designed binder)
chain: B1 chain with V69L, D73G, E75V, L77I
notes: tag left out
Turning to B17, the “Binding to 1 nM KDR, %” value came to 11%.

B18: 2′Del F12 PR4 (designed binder)
chain: B1 chain with V69L, A70T, N72H
notes: tag left out
Take B18: the “Binding to 1 nM KDR, %” value is 7%.

B19: 1′DelA9 PR4 (designed binder)
chain: B1 chain with V69L, L77M
notes: tag left out
As to B19, the “Binding to 1 nM KDR, %” value is 13%.

B20: 1′DelB7 PR4 (designed binder)
chain: B1 chain with L77K
notes: tag left out
As for B20, the “Binding to 1 nM KDR, %” value came to 8%.

B21: 3G5 PR3 (designed binder)
chain: B1 chain with V69L, A70G, Q71E, H74R, E75K, L77I
notes: tag left out
In the case of B21, the “Binding to 1 nM KDR, %” value stood at 13%.

B22: 4C4 PR3 (designed binder)
chain: B1 chain with N72D, L77F
notes: tag left out
Take B22: the “Binding to 1 nM KDR, %” value was 10%.

B23: 1′DelE12 PR4 (designed binder)
chain: B1 chain with N72S, L77F
notes: tag left out
As to B23, the “Binding to 1 nM KDR, %” value was determined as 13%.

B24: 3C5 PR3 (designed binder)
chain: B1 chain with V69G, A70D, Q71H, H74R, L77M
notes: tag left out
Turning to B24, the “Binding to 1 nM KDR, %” value was 12%.

B25: 2′Del E12 PR4 (designed binder)
chain: B1 chain with V69E, A70G, Q71P, D73G, L77I
notes: tag left out
For B25, the “Binding to 1 nM KDR, %” value was 13%.

B26: 4A2 PR3 (designed binder)
chain: B1 chain with D73A, L77M
notes: tag left out
As to B26, the “Binding to 1 nM KDR, %” value amounted to 8%.

B27: 2′DelB9 PR4 (designed binder)
chain: B1 chain with A70G, Q71P, N72T
notes: tag left out
Regarding B27, the “Binding to 1 nM KDR, %” value was 11%.

B28: 3G10 PR3 (designed binder)
chain: B1 chain with A70V, Q71H, D73G, L76I
notes: tag left out
For the molecule B28, the “Binding to 1 nM KDR, %” value was 10%.

B29: 3′E4 PR4 (designed binder)
chain: B1 chain with A70G, Q71P, H74R, L77I, T78V
notes: tag left out
In the case of B29, the “Binding to 1 nM KDR, %” value is 12%.

B30: 4F12 PR3 (designed binder)
chain: B1 chain with A70T, D73G, L77I
notes: tag left out
Take B30: the “Binding to 1 nM KDR, %” value stood at 13%.

B31: 1′DelH1 PR4 (designed binder)
chain: B1 chain with D73G, L77I
notes: tag left out
As for B31, the “Binding to 1 nM KDR, %” value came to 9%.

B32: 4A3 PR3 (designed binder)
chain: B1 chain with N72D, D73E, L77I
notes: tag left out
B32: the “Binding to 1 nM KDR, %” value was determined as 6%.

B33: 3′F7 PR4 (designed binder)
chain: B1 chain with V69E, A70G, D73G, H74S, L77I, T78V
notes: tag left out
Consider B33, for which the “Binding to 1 nM KDR, %” value amounted to 14%.

B34: 2′DelH2 PR4 (designed binder)
chain: B1 chain with A70S, N72Y, D73G, L77I
notes: tag left out
As to B34, the “Binding to 1 nM KDR, %” value turned out to be 8%.

B35: 1′DelC6 PR4 (designed binder)
chain: B1 chain with D73E
notes: tag left out
Turning to B35, the “Binding to 1 nM KDR, %” value came to 12%.

B36: 4B6 PR3 (designed binder)
chain: B1 chain with A70G, L77F
notes: tag left out
For the molecule B36, the “Binding to 1 nM KDR, %” value came out at 14%.

B37: 1′DelC2 PR4 (designed binder)
chain: B1 chain with A70D, Q71R, L77F
notes: tag left out
In the case of B37, the “Binding to 1 nM KDR, %” value amounted to 13%.

B38: 4C11 PR3 (designed binder)
chain: B1 chain with V69M, H74R, L77I
notes: tag left out
For the molecule B38, the “Binding to 1 nM KDR, %” value stood at 14%.

B39: 3F5 PR3 (designed binder)
chain: B1 chain with Q71Y, D73E, L77Y
notes: tag left out
On to B39, for which the “Binding to 1 nM KDR, %” value came out at 11%.

B40: 3F4 PR3 (designed binder)
chain: B1 chain with V69M, A70G, Q71Y, N72E, L77I
notes: tag left out
With B40, the “Binding to 1 nM KDR, %” value stood at 10%.

B41: 2′DelB10 PR4 (designed binder)
chain: B1 chain with A70T, Q71H
notes: tag left out
Turning to B41, the “Binding to 1 nM KDR, %” value amounted to 11%.

B42: 3′D12 PR4 (designed binder)
chain: B1 chain with V69G, A70E, H74Y, T78V
notes: tag left out
B42: the “Binding to 1 nM KDR, %” value is 7%.

B43: 3D4 PR3 (designed binder)
chain: B1 chain with A70G, Q71W, L77I
notes: tag left out
Turning to B43, the “Binding to 1 nM KDR, %” value came out at 10%.

B44: 3G1 PR3 (designed binder)
chain: B1 chain with V69M, D73V, H74R
notes: tag left out
Consider B44, for which the “Binding to 1 nM KDR, %” value worked out at 13%.

B45: 1′DelH9 PR4 (designed binder)
chain: B1 chain with A70G, L77I
notes: tag left out
Turning to B45, the “Binding to 1 nM KDR, %” value came out at 10%.

B46: 3D11 PR3 (designed binder)
chain: B1 chain with V69L, A70G, N72E, D73N, H74Q, L77I
notes: tag left out
On to B46, for which the “Binding to 1 nM KDR, %” value is 10%.

B47: 3′E8 PR4 (designed binder)
chain: B1 chain with H74R, E75Q, L77F
notes: tag left out
As to B47, the “Binding to 1 nM KDR, %” value was determined as 12%.

B48: 3′D4 PR4 (designed binder)
chain: B1 chain with V69L, Q71H, H74R, L77I
notes: tag left out
Regarding B48, the “Binding to 1 nM KDR, %” value turned out to be 12%.

B49: 3′A3 PR4 (designed binder)
chain: B1 chain with V69R, L77I
notes: tag left out
Take B49: the “Binding to 1 nM KDR, %” value amounted to 9%.

B50: 3′E6 PR4 (designed binder)
chain: B1 chain with V69F, A70G, D73G, H74K, L76F, L77R, T78I
notes: tag left out
With B50, the “Binding to 1 nM KDR, %” value was determined as 5%.

B51: 3A8 PR3 (designed binder)
chain: B1 chain with V69E, Q71H, N72H, D73G, L77M, T78I
notes: tag left out
With B51, the “Binding to 1 nM KDR, %” value was determined as 12%.

B52: 3F11 PR3 (designed binder)
chain: B1 chain with A70G, Q71L, N72T, E75V
notes: tag left out
B52: the “Binding to 1 nM KDR, %” value was found to be 10%.

B53: 1′DelC5 PR4 (designed binder)
chain: B1 chain with V69L, L76I, L77M
notes: tag left out
For B53, the “Binding to 1 nM KDR, %” value is 11%.

B54: 2′H5-PR4 (designed binder)
chain: VSDVPRDLEVVAATPTSLLISWRHPHFPTRYYRITYGETGGNSPVQEFTVPLQPPTATISGLKPGVDYTITGYAVTLGKDVRELLTPISINYRT
notes: tag left out
Regarding B54, the “Binding to 1 nM KDR, %” value was found to be 3%.
